Data reported in US20260152557A1 (Adimab, published 2026).

Legend:
[1] = molecular target: T1, cynomolgus CD3εδ-Fc heterodimer (Cy CD3ε Fc / CD3δ Fc-HIS) (cynomolgus, UniProt Q95LI8 22-100); assay: BLI (Octet), CHO-produced IgG on AHC sensor, CD3εδ-Fc 100 nM in solution, pH 7.4
T1 construct: range 22-100; Produced in HEK 293 cells; also called Cy CD3εδ Fc heterodimer; not shown: Fc-HIS part of CD3δ Fc-HIS
Procedure: (§1) Anti-CD3 antibodies Antibody Nos. 1-13 were produced as human IgG1 antibodies in yeast or CHO cells. IgGs produced in yeast were aglycosylated, CHO) produced IgGs had standard CH2 glycosylation. Binding affinity to human or cynomolgus CD3εδ-Fc at pH 7.4 and pH 6.0 was measured via biolayer interferometry (BLI) using the ForteBio OCTET® HTX system and analyzed using the ForteBio software.
(§2) Kinetics were analyzed using the 1:1 binding model.

[2] = molecular target: T2, cynomolgus CD3 on HSC-F cells (cynomolgus, UniProt Q95LI5 22-198); assay: flow cytometry, yeast-produced IgG 100 nM on HSC-F cells, pH 6.0
T2 construct: whole, on cells; also called Cyno HSC-F; cynomolgus HSC-F cells
T2 sequence (Q95LI5 22-198): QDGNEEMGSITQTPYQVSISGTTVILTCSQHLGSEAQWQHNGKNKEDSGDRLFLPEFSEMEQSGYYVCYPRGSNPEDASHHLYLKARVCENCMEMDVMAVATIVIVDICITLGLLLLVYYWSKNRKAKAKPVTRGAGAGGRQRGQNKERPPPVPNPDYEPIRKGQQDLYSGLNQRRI
Procedure: (§3) Anti-CD3 antibodies Antibody Nos. 1-13 were produced as aglycosylated IgGs comprising a IgG1 Fc region in yeast cells. Binding to human or cynomolgus CD3-expressing cells (human CD3+ Jurkat cells or cynomolgus HSC-F cells, respectively) at pH 7.4 and pH 6.0 were measured by fluorescence-activated single cell sorting (FACS). Normalized cell binding (NCB) values were calculated based on median fluorescence intensity (MFI) values, CD3 negative Jurkat cells were used as a negative control.
(§4) Cell binding assay, CD3+ and CD3− human Jurkat cells (ATCC) and cynomolgus HSC-F cells (NIH) were thawed and washed with cold PBSF buffer, pH 7.4 (PBS+0.1% BSA, pH 7.4). About 200,000 cells were aliquoted per well of a 96-well plate (FACS Assay Plate VWR BD 353263) and pelleted by centrifugation (5 minutes at 500×g). The cells were washed with either PBSF pH 7.4 or PBSF pH 6.0 (PBS+0.1% BSA, pH 6.0), and then resuspended in 100 μl in either PBSF pH 7.4 or PBSF pH 6.0 with IgG antibody (100 nM) produced in yeast as described above. The mixture (cells+antibody) was incubated for 20 minutes on ice, then washed twice with either PBSF pH 7.4 or PBSF pH 6.0. Cells were resuspended in 50 μl of propidium iodide (Roche; 1:500 dilution) and anti-human IgG-RPE (Southern Biotech; 1:100 dilution) prepared in either PBSF pH 7.4 or PBSF pH 6.0, then incubated for 20 minutes on ice in the dark before cells were washed twice with either PBSF pH 7.4 or PBSF pH 6.0. Binding was analyzed on FACS Canto 11.

[3] = molecular target: T3, human CD3 on CD3+ Jurkat cells (human, UniProt P07766 23-207); assay: flow cytometry, yeast-produced IgG 100 nM on CD3+ Jurkat cells, pH 7.4
T3 construct: whole, on cells; The whole CD3 complex stands on the cells; also called Human CD3 Jurkat; human CD3+ Jurkat cells
T3 sequence (P07766 23-207): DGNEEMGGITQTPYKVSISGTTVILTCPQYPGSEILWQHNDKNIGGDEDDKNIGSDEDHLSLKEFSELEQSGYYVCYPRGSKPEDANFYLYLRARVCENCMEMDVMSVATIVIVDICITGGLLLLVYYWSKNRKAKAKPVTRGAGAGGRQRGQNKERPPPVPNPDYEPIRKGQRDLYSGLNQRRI
Procedure: as §3, §4

[4] = molecular target: T2, cynomolgus CD3 on HSC-F cells; assay: flow cytometry, yeast-produced IgG 100 nM on HSC-F cells, pH 7.4
Procedure: as §3, §4

[5] = molecular target: T1, cynomolgus CD3εδ-Fc heterodimer (Cy …); assay: BLI (Octet), CHO-produced IgG on AHC sensor, CD3εδ-Fc 100 nM in solution, pH 6.0
Procedure: as §1, §2

[6] = molecular target: T3, human CD3 on CD3+ Jurkat cells; assay: flow cytometry, yeast-produced IgG 100 nM on CD3+ Jurkat cells, pH 6.0
Procedure: as §3, §4

[7] = molecular target: T1, cynomolgus CD3εδ-Fc heterodimer (Cy …); assay: BLI (Octet), yeast-produced IgG on AHC sensor, CD3εδ-Fc 100 nM in solution, pH 6.0
Procedure: as §1, §2

[8] = molecular target: T4, human CD3εδ-Fc heterodimer (Hu CD3ε Fc / CD3δ Fc-HIS) (human, UniProt P04234 22-100); assay: as above
T4 construct: range 22-100; Produced in HEK 293 cells with a heterologous signal peptide; heterodimer purified by Ni Sepharose and Mono Q; also called Hu CD3εδ Fc heterodimer; CD3εδ Fc-HIS heterodimer; not shown: Fc-HIS part of CD3δ Fc-HIS
T4 sequence (chain, as listed by the source mutant, form in doubt, chain 1 of 2): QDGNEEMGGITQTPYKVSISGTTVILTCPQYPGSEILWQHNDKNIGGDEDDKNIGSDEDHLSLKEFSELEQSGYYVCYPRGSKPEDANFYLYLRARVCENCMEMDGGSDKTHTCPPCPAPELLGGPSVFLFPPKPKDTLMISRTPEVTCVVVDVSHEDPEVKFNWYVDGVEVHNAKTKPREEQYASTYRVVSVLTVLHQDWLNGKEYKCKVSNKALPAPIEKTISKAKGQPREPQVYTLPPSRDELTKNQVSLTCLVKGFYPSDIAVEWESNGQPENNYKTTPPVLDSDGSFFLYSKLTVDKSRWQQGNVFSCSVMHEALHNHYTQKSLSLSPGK
T4 sequence (P04234 22-100, stated change not applied, form in doubt, chain 2 of 2): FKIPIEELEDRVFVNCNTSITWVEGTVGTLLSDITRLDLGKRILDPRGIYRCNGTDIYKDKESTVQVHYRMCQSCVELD
Procedure: as §1, §2

[9] = molecular target: T1, cynomolgus CD3εδ-Fc heterodimer (Cy …); assay: BLI (Octet), yeast-produced IgG on AHC sensor, CD3εδ-Fc 100 nM in solution, pH 7.4
Procedure: as §1, §2

[10] = molecular target: T4, human CD3εδ-Fc heterodimer (Hu CD3ε Fc …); assay: as above
Procedure: as §1, §2

[11] = molecular target: T4, human CD3εδ-Fc heterodimer (Hu CD3ε Fc …); assay: SPR (Biacore 8K), yeast-produced Fab, monovalent, pH 6.0
Procedure: (§5) Anti-CD3 antibodies (Antibody Nos. 1-13) were produced as human IgG1 antibodies in yeast or Chinese hamster ovary (CHO) cells, and Fab fragments were generated from the IgG1 antibodies by papain digestion and purified IgGs produced in yeast were aglycosylated. CHO produced IgGs had standard CH2 glycosylation. […] Monovalent binding affinity to human or cynomolgus CD3εδ-Fc at pH 7.4 and pH 6.0 were measured via surface plasmon resonance (SPR) using the BIACORE® 8K (Cytiva, previously GE Healthcare Life Sciences) system and analyzed using BIACORE® Evaluation Software.
(§6) BIACORE® KD measurements (surface plasmon resonance; SPR). BIACORE® affinity measurements were performed generally as previously described. Briefly, human CD3εδ-Fc heterodimer produced as described above was immobilized to a NiNTA sensor chip in a BIACORE® 8K (Cytiva, previously GE Healthcare Life Sciences) to a response level of ˜500 RUs. […] The sensor chip was doubly regenerated between cycles using 0.35 M EDTA and 0.1 M NaOH. The resulting data were double reference subtracted and fit to a 1:1 binding model using BIACORE® Evaluation Software.

[12] = molecular target: T1, cynomolgus CD3εδ-Fc heterodimer (Cy …); assay: SPR (Biacore 8K), CHO-produced Fab, monovalent, pH 7.4
Procedure: as §5, §6

[13] = molecular target: T4, human CD3εδ-Fc heterodimer (Hu CD3ε Fc …); assay: BLI (Octet), CD3εδ-Fc on AHC sensor, CHO-derived Fab 100 nM in solution, pH 6.0
[14] = molecular target: T1, cynomolgus CD3εδ-Fc heterodimer (Cy …); assay: SPR (Biacore 8K), CHO-produced Fab, monovalent, pH 6.0
Procedure: as §5, §6

[15] = molecular target: T4, human CD3εδ-Fc heterodimer (Hu CD3ε Fc …); assay: as above
Procedure: as §5, §6

[16] = molecular target: T4, human CD3εδ-Fc heterodimer (Hu CD3ε Fc …); assay: BLI (Octet), CD3εδ-Fc on AHC sensor, CHO-derived Fab 100 nM in solution, pH 7.4
[17] = molecular target: T4, human CD3εδ-Fc heterodimer (Hu CD3ε Fc …); assay: SPR (Biacore 8K), CHO-produced Fab, monovalent, pH 7.4
Procedure: as §5, §6

[18] = molecular target: T4, human CD3εδ-Fc heterodimer (Hu CD3ε Fc …); assay: SPR (Biacore 8K), yeast-produced Fab, monovalent, pH 7.4
Procedure: as §5, §6

T1 sequence (chain, as listed by the source mutant, form in doubt, chain 1 of 2): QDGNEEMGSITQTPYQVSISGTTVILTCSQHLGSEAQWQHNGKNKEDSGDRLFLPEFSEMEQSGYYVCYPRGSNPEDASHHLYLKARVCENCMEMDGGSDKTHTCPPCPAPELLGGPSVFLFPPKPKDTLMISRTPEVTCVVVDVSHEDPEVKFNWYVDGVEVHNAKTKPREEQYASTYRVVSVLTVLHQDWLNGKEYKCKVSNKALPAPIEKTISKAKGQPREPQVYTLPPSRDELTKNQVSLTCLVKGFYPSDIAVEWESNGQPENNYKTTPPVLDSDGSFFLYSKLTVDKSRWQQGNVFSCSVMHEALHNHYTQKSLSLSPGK
T1 sequence (Q95LI8 22-100, stated change not applied, form in doubt, chain 2 of 2): as the sequence (P04234 22-100, stated change not applied, form in doubt, chain 2 of 2) above, with I5V, N15K, I20V, S32T, D33N, I34N, T64A, S74N counted along it

Row | Binder | Kd [1] | NCB [2] | NCB [3] | NCB [4] | Kd [5] | NCB [6] | Kd [7] | Kd [8] | Kd [9] | Kd [10] | Kd [11] | Kd [12] | Kd [13] | Kd [14] | Kd [15] | Kd [16] | Kd [17] | Kd [18]
1 | ADI-26906 (Antibody No. 1), human IgG1 (antibody, V domains shown, Non-pH-dependent parent; Tested as human IgG1 (yeast-produced aglycosylated, or CHO-produced); also called Ab No. 1) VH: QVQLVQSGAEVKKPGASVKVSCKASGFNIKDYYMHWVRQAPGQRLEWMGWIDLENANTIYDAKFQGRVTITRDTSASTAYMELSSLRSEDTAVYYCARDAYGRYFYDVWGQGTLVTVSS VL: DIVMTQSPDSLAVSLGERATINCKSSQSLLNARTGKNYLAWYQQKPGQPPKLLIYWASTRESGVPDRFSGSGSGTDFTLTISSLQAEDVAVYYCKQSYSRRTFGGGTKVEIK | 5.87 nM | 560 | 149 | 167 | 5.89 nM | 203 | 2.5 nM | 2.84 nM | 4.1 nM | 4.35 nM |  |  |  |  |  |  |  | 
2 | Fab of ADI-48587 (Antibody No. 2) (Fab, V domains shown, Fab made by papain digestion of the human IgG1 (yeast- or CHO-produced); also called Antibody No. 2 Fab; ADI-48587 Fab) VH: QVQLVQSGAEVKKPGASVKVSCKASGFNIKDYYMHWVRQAPGQRLEWMGWIDLENANTIYDAKFQGRVTITRDTSASTAYMELSSLRSEDTAVYYCARDHYHRYFYDVWGQGTLVTVSS VL: DIVMTQSPDSLAVSLGERATINCKSSQSLLNARTGHNYLAWYQQKPGQPPKLLIYWASTRESGVPDRFSGSGSGTDFTLTISSLQAEDVAVYYCKQSHSHRTFGGGTKVEIK |  |  |  |  |  |  |  |  |  |  | 15.7 nM | 62.7 nM | 65.9 nM | 25.4 nM | 43.2 nM |  |  | 
3 | Fab of ADI-74965 (Antibody No. 3) (Fab, V domains shown, Fab made by papain digestion of the human IgG1 (yeast- or CHO-produced); also called Antibody No. 3 Fab; ADI-74965 Fab) VH: QVQLVQSGAEVKKPGASVKVSCKASGFNIKDYYMHWVRQAPGQRLEWMGWIDLENANTIYDAKFQGRVTITRDTSASTAYMELSSLRSEDTAVYYCARDAYHRYFYDVWGQGTLVTVSS VL: DIVMTQSPDSLAVSLGERATINCKSSQSLLNARTGHNYLAWYQQKPGQPPKLLIYWASTRESGVPDRFSGSGSGTDFTLTISSLQAEDVAVYYCKQSHSHRTFGGGTKVEIK |  |  |  |  |  |  |  |  |  |  | 10.5 nM |  | 24.4 nM | 11.3 nM | 10.9 nM | 142 nM |  | 

Now from value to binder:

Row | Kd [1] | NCB [2] | NCB [3] | NCB [4] | Kd [5] | NCB [6] | Kd [7] | Kd [8] | Kd [9] | Kd [10] | Kd [11] | Kd [12] | Kd [13] | Kd [14] | Kd [15] | Kd [16] | Kd [17] | Kd [18] | Binder
4 |  |  |  |  |  |  |  |  |  |  | 6.07 nM | 46.5 nM | 14.8 nM | 6.18 nM | 6.37 nM | 69.3 nM | 47.5 nM |  | Fab of ADI-74968 (Antibody No. 6) (Fab, V domains shown, Fab made by papain digestion of the human IgG1 (yeast- or CHO-produced); also called Antibody No. 6 Fab; ADI-74968 Fab) VH: QVQLVQSGAEVKKPGASVKVSCKASGFNIKDYYMHWVRQAPGQRLEWMGWIDLENANTIYDAKFQGRVTITRDTSASTAYMELSSLRSEDTAVYYCARDAYHRYFYDVWGQGTLVTVSS VL: DIVMTQSPDSLAVSLGERATINCKSSQSLLNARTGHNYLAWYQQKPGQPPKLLIYWASTRESGVPDRFSGSGSGTDFTLTISSLQAEDVAVYYCKQSYSHRTFGGGTKVEIK
5 |  |  |  |  |  |  |  |  |  |  | 1.9 nM | 1.09 nM | 5.81 nM | 1.9 nM | 1.25 nM | 6.03 nM | 1.09 nM | 2.4 nM | Fab of ADI-26906 (Antibody No. 1) (Fab, V domains shown, Fab made by papain digestion of the human IgG1 (yeast- or CHO-produced); also called Antibody No. 1 Fab; ADI-26906 Fab) VH: QVQLVQSGAEVKKPGASVKVSCKASGFNIKDYYMHWVRQAPGQRLEWMGWIDLENANTIYDAKFQGRVTITRDTSASTAYMELSSLRSEDTAVYYCARDAYGRYFYDVWGQGTLVTVSS VL: DIVMTQSPDSLAVSLGERATINCKSSQSLLNARTGKNYLAWYQQKPGQPPKLLIYWASTRESGVPDRFSGSGSGTDFTLTISSLQAEDVAVYYCKQSYSRRTFGGGTKVEIK
6 |  |  |  |  |  |  |  |  |  |  | 8.45 nM | 73.7 nM | 24.9 nM | 11.6 nM | 8.16 nM |  | 55.5 nM |  | Fab of ADI-74967 (Antibody No. 5) (Fab, V domains shown, Fab made by papain digestion of the human IgG1 (yeast- or CHO-produced); also called Antibody No. 5 Fab; ADI-74967 Fab) VH: QVQLVQSGAEVKKPGASVKVSCKASGFNIKDYYMHWVRQAPGQRLEWMGWIDLENANTIYDAKFQGRVTITRDTSASTAYMELSSLRSEDTAVYYCARDHYHRYFYDVWGQGTLVTVSS VL: GIVMTQSPDSLAVSLGERATINCKSSQSLLNARTGKNYLAWYQQKPGQPPKLLIYWASTRESGVPDRFSGSGSGTDFTLTISSLQAEDVAVYYCKQSHSHRTFGGGTKVEIK
